Results reported in patent US20120077751.

How the values were obtained:
[1] = system: GST-GluR23Y (GST-YKEGYNVYG) [GST: P08515]
[2] = system: T1, GST-GluR23A (GST-AKEGANVAG)
T1 sequence: AKEGANVAG

[3] = system: GST back bone (GST) [GST: P08515]
[4] = molecular target: GST fusion protein of the GluR2 carboxyl tail (GST-GluR2CT) (UniProt P19491)
[5] = molecular target: GST fusion protein of the GluR1 carboxyl tail (GST-GluR1CT) (UniProt P19490)
Chain of GST fusion protein of the GluR1 carboxyl tail (GST-GluR1CT) (P19490 827-907): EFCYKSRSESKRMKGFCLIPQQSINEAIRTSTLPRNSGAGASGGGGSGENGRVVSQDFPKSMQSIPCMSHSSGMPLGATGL

Chain of GST fusion protein of the GluR2 carboxyl tail (GST-GluR2CT) (P19491 834-883): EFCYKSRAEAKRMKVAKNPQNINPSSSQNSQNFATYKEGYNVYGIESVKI

active recombinant pp60 c-Src
in vitro kinase assay, anti-phosphotyrosine immunoblot [1]: the recombinant Src kinase phosphorylated a GST fusion protein containing the nine amino-acid stretch including all three GluR2-unique tyrosine residues | in vitro kinase assay, anti-phosphotyrosine immunoblot [2]: Src-mediated phosphorylation was abolished when these tyrosine residues were mutated into alanines | in vitro kinase assay, anti-phosphotyrosine immunoblot [3]: GST-GluR2CT, but not GST-GluR1CT or GST alone, is specifically phosphorylated by Src kinase | in vitro kinase assay, anti-phosphotyrosine immunoblot [4]: GST-GluR2CT, but not GST-GluR1CT or GST alone, is specifically phosphorylated by Src kinase | in vitro kinase assay, anti-phosphotyrosine immunoblot [5]: GST-GluR2CT, but not GST-GluR1CT or GST alone, is specifically phosphorylated by Src kinase
